{"source": "patent WO2023002944A1", "biological_target": "RBD domain derived from the Omicron strain (B.1.1.529 strain) (SARS-CoV-2 Omicron strain (B.1.1.529)) (UniProt P0DTC2)", "assay": "SPR (Biacore T200), as in Example 4: antibody on the chip, RBD as analyte", "data": [{"substance": "S309 (antibody)", "values": [{"measurement": "Kd", "result": 2.1, "unit": "nM"}]}]}
